The results in this text go back to the Immune Epitope Database (IEDB).

Bounds are passed on as bounds.

Test [1] has as its target HLA-A*02:01. Briefly: IEDB peptide-MHC binding, cellular MHC/competitive/fluorescence; ≥ and ≤ were set here for values at or beyond the usual limits of such assays.
For test [2], the target named is HLA-A*68:02. The description is as above.
The target in test [3] is HLA-A*02:02. Briefly: IEDB peptide-MHC binding, purified MHC/competitive/radioactivity; ≥ and ≤ were set here for values at or beyond the usual limits of such assays.
The target in test [4] is HLA-A*02:03. The test is described as above.
Test [5] addresses HLA-A*02:06. Described as above.
Test [6] concerns the target HLA-A*02:06. Briefly: IEDB peptide-MHC binding, cellular MHC/competitive/fluorescence; ≥ and ≤ were set here for values at or beyond the usual limits of such assays.
Test [7] has as its target HLA-A*02:01. The test can be described thus: IEDB peptide-MHC binding, purified MHC/competitive/radioactivity; ≥ and ≤ were set here for values at or beyond the usual limits of such assays.
Test [8] deals with HLA-A*68:02. Described as above. The conditions noted are these: source organism: Vaccinia virus WR.
The mark [9] stands for this setting: source organism: Vaccinia virus WR.
Setting [10] is: source organism: Influenza A virus.
Where [11] appears, read: source organism: Hepacivirus hominis.
Setting [12] is: source organism: Mammarenavirus whitewaterense.
Where [13] appears, read: source organism: Mammarenavirus brazilense.

Regarding LQWDDNIPEL, the IC50 (as a rule, the concentration at which inhibition is half-maximal) in test [1] (setting [9]) stood at 9520 nM; in test [2] (setting [9]) it was 42700 nM; in test [3] (setting [9]), 180 nM; in test [4] (setting [9]), 712 nM; in test [5] (setting [9]), 34 nM.
Take MAEFEDQLV: the IC50 came to 5510 nM in test [6] (setting [9]); 2150 nM in test [7] (setting [9]); 165 nM in test [3] (setting [9]); 641 nM in test [4] (setting [9]); 674 nM in test [8].
MIGNYFSGVL: the 50% inhibitory concentration (IC50) in test [1] (setting [9]) was found to be 5760 nM; in test [2] (setting [9]), 5620 nM; in test [3] (setting [9]) it was 712 nM; in test [4] (setting [9]), 761 nM; in test [5] (setting [9]), 1310 nM.
For NIDSIMSMM, in that order: 5140 nM, 11100 nM, 25 nM, 874 nM and 4720 nM.
On the same counts, the results for NIKISLNEI are 21000 nM, 20000 nM, 1670 nM, 31 nM and 1500 nM.
For NITPDDGLGL, in that order: 6530 nM, 12600 nM, 1910 nM, 1290 nM and 3450 nM.
On to QLVFNSISA, for which the half-maximal inhibitory concentration (IC50) stood at 9420 nM in test [1] (setting [9]); 8220 nM in test [2] (setting [9]); 4800 nM in test [3] (setting [9]); 1560 nM in test [4] (setting [9]); 3780 nM in test [5] (setting [9]).
Consider QLVWMACHSAA, for which the IC50 in test [1] (setting [10]) was 11400 nM; in test [6] (setting [10]) it was at least 70000 nM.
As for QLYTISSESL, the IC50 in test [1] (setting [9]) stood at 5290 nM; in test [2] (setting [9]) it was 6880 nM; in test [3] (setting [9]), 72 nM; in test [4] (setting [9]), 245 nM; in test [5] (setting [9]) it was 4740 nM.
On the same counts, the results for RLYDYFTRVT are 6110 nM, 7340 nM, 2450 nM, 551 nM and 691 nM.
For RVLYDEFVT, in that order: 13500 nM, 28000 nM, 2170 nM, 1410 nM and 1720 nM.
For VIPDELIDVL, the IC50 in test [1] (setting [9]) stood at 33000 nM; in test [2] (setting [9]) it was 9260 nM; in test [3] (setting [9]), 2490 nM; in test [4] (setting [9]) it was 4590 nM; in test [5] (setting [9]), 298 nM.
On the same counts, the results for YIEDELRRA are 5410 nM, at least 70000 nM, 1760 nM, 259 nM and 1230 nM.
As for YLLGDSDSVA, the IC50 in test [2] (setting [9]) is 10700 nM; in test [7] (setting [9]), 20 nM; in test [3] (setting [9]), 2 nM; in test [4] (setting [9]), 23 nM; in test [5] (setting [9]), 135 nM.
On to YLLGLSAIM, for which the 50% inhibitory concentration (IC50) in test [2] (source organism: SARS-CoV1) was 12100 nM; in test [7] (source organism: SARS-CoV1), 1.1 nM; in test [3] (source organism: SARS-CoV1), 1.7 nM; in test [4] (source organism: SARS-CoV1) it was 37 nM; in test [5] (source organism: SARS-CoV1), 3.2 nM.
For YLLMHLVSL, the half-inhibitory concentration (IC50) in test [2] (setting [9]) amounted to 7750 nM; in test [7] (setting [9]) it was 3.5 nM; in test [3] (setting [9]), 0.18 nM; in test [4] (setting [9]), 1.4 nM; in test [5] (setting [9]) it was 0.25 nM.
On the same counts, the results for YLPEVISTIA are 7130 nM, 29 nM, 11 nM, 0.96 nM and 18 nM.
For YLSDSDNIKI, in that order: 7780 nM, 53 nM, 16 nM, 109 nM and 906 nM.
For YLSGTDDEVI, in that order: 15800 nM, 220 nM, 6.3 nM, 211 nM and 947 nM.
With YLVTRNADV, the IC50 in test [2] (setting [11]) was at least 70000 nM; in test [7] (setting [11]), 296 nM; in test [3] (setting [11]), 55 nM; in test [4] (setting [11]) it was 62 nM; in test [5] (setting [11]), 4320 nM.
For YLYGIGSAVV, in that order: 5120 nM, 39 nM, 12 nM, 3.5 nM and 285 nM.
As to YNLSLSAAV, the IC50 was at least 70000 nM in test [2] (setting [12]); 255 nM in test [7] (setting [12]); 868 nM in test [3] (setting [12]); 1150 nM in test [4] (setting [12]); 1660 nM in test [5] (setting [12]).
As to YNYSLSAAV, the IC50 is at least 70000 nM in test [2] (setting [13]); 539 nM in test [7] (setting [13]); 79 nM in test [3] (setting [13]); 67 nM in test [4] (setting [13]); 88 nM in test [5] (setting [13]).
